From publication PMC3912212

Legend:
[1] = biological target: paclitaxel-stabilized microtubules (bovine brain tubulin) (bovine (purified from juvenile bovine brains)) (UniProt Q6B856); assay: TIRF microscopy, fluorescence intensity on microtubules against concentration; fluorescently-labeled microtubules adhered to cover glass; CCA-GFP introduced at increasing concentrations and allowed to equilibrate; line-scan intensity fit to a Michaelis-Menten curve (binding isotherm)
[2] = biological target: paclitaxel-stabilized microtubules (bovine brain tubulin) (bovine (purified from juvenile bovine brains)) (UniProt Q6B856)
[3] = biological target: subtilisin-digested microtubules (C-terminal tails of tubulin removed) (bovine (purified from juvenile bovine brains))
[4] = biological target: paclitaxel-stabilized microtubules (bovine brain tubulin) (bovine (purified from juvenile bovine brains)) (UniProt Q6B856); assay: calculated from the TIRF intensity titration (KD) and the single-molecule lifetimes (koff); association rate constant inferred from KD and koff, not measured directly
[5] = biological target: paclitaxel-stabilized microtubules (bovine brain tubulin) (bovine (purified from juvenile bovine brains)) (UniProt Q6B856); assay: TIRF microscopy, single-molecule assay for microtubule-associated proteins; rhodamine-labeled microtubules immobilised on the surface by anti-rhodamine antibodies; CCA-GFP in solution; lifetimes of tracked single molecules, exponential fit, corrected for photobleaching
[6] = biological target: paclitaxel-stabilized microtubules (bovine brain tubulin) (bovine (purified from juvenile bovine brains)) (UniProt Q6B856); assay: TIRF microscopy, fluorescence intensity on microtubules; one flow chamber containing both brightly-labeled microtubules and dimly-labeled, subtilisin-digested microtubules; CCA-GFP in solution; line-scan intensity, mean ± SD
[7] = biological target: paclitaxel-stabilized microtubules (bovine brain tubulin) (bovine (purified from juvenile bovine brains)) (UniProt Q6B856); assay: TIRF microscopy, fluorescence intensity on microtubules; surface-immobilized microtubules; CCA-GFP with no added salt, 25 mM KCl or 50 mM KCl; line-scan intensity, mean ± SD

For “CCA-GFP, minimal chromosome passenger complex of INCENP a.a. 491-873 (coiled-coil domain and INBox) and Aurora-B (from UniProt O13024 491-873; Q6DE08 1-361)”, the Kd [1] was 80 nM, the normalized 32P band intensity of the INBox motif (CCA auto-phosphorylation) in an in vitro kinase assay with 3 µM microtubules; buffer control 0.62 [2] was 0.92 a.u and the normalized 32P band intensity of the INBox motif (CCA auto-phosphorylation) in an in vitro kinase assay with 3 µM subtilisin-digested microtubules; buffer control 0.62, undigested microtubules 0.92 [3] was 0.64 a.u. It also gave a kon [4] of 8.25e+06 M⁻¹ s⁻¹, a koff [5] of 0.66 s⁻¹ and a mean residence time on the lattice [5] of 1.5 s. The GFP intensity on undigested microtubules [6] was 375 a.u, the CCA-GFP intensity on microtubules, 25 mM KCl added [7] was 117 a.u and the CCA-GFP intensity on microtubules, 50 mM KCl added [7] was 27 a.u. It also gave a CCA-GFP intensity on microtubules, no added salt [7] of 277 a.u.
